Data reported in patent US20220089770A1 (Chugai, published 2022).

T1: human XPR1-Myc (human, UniProt Q9UBH6 1-696)
T1 sequence: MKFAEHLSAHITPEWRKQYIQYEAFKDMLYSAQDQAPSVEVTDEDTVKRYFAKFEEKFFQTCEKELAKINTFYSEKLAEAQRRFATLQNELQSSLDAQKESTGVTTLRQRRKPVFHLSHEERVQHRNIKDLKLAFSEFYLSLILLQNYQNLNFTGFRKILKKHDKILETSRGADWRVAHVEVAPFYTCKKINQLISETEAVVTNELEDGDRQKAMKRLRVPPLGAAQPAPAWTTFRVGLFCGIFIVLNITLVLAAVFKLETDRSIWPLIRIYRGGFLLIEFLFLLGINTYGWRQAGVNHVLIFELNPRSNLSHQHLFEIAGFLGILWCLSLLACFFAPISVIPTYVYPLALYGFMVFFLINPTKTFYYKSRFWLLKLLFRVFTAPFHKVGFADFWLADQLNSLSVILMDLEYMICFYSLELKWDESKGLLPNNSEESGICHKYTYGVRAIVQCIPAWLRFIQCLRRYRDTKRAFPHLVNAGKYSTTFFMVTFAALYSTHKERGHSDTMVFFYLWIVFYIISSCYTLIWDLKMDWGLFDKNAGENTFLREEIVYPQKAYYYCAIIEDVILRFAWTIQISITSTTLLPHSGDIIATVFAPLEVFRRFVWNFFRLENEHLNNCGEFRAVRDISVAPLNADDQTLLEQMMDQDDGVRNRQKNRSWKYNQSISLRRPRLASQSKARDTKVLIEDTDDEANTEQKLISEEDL

T2: Myc-human MARVELD3 (human, UniProt Q96A59 2-401)
T2 construct: also called human MARVELD3 isoform2; MARVELD3 isoform2
T2 sequence: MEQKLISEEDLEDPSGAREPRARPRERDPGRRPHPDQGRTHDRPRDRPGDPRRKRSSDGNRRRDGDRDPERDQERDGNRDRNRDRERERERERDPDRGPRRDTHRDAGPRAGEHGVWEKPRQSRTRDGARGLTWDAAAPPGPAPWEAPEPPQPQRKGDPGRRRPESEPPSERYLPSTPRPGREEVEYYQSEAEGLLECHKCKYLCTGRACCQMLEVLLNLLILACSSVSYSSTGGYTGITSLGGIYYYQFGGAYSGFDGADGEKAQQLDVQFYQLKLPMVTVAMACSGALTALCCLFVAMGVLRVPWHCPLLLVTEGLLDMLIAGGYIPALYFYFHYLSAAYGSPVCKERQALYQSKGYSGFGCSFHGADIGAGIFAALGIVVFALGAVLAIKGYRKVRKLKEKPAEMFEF

B1: XPB0062 (antibody, V domains shown)
VH: QSLEESGGDLVKPGASLTLTCTASGFSFSSSYWICWVRQAPGKGLEWIACINAGNSGSTYYASWAKGRFTISKTSSTTVTLQMTSLTAADTATYFCARGSYSYGYVGYVYTTSTRLDLWGQGTLVTVSS
VL: DVVMTQTPASVSEPVGGTVTIKCQASQNIGSDLAWYQQKPGQPPKLLIYRASTLASGVSSRFKGSGSGTQFTLTISDLECADAATYYCQCTYYGSIYVPNAFGGGTEVVVK
notes: Rabbit variable regions inserted into an expression vector containing the IgG constant regions (recombinant antibody); detected with anti-human IgG Fc; also called anti-human XPR1 antibody
B2: NXA0164 (antibody, V domains shown)
VH: QSVEESGGRLVTPGTPLTLTCTVSGFSLSNYAMSWVRQAPGKGLEWIGIISSSGSTYYASWAKGRFTISKTSTTVDLKITSPTTEDTATYFCARDLDASTGTDIWGPGTLVTVSS
VL: AVLTQTPSPVSAAVGGTVTINCQASQSVYSNNYLSWFQQKPGQPPKLLIYKASTLASGVPSRFKGSGSGTQFTLTISDVQCDDAATYYCAGDYKSSSDIRAFGGGTEVVVK
notes: Rabbit variable regions inserted into an expression vector containing IgG constant regions; detected with anti-human IgG Fc; also called anti-human NOX1 antibody
B3: MDA0314 (antibody, V domains shown)
VH: QSLEESGGRLVTPGTPLTLTCTASGFSLSYYFMTWVRQAPGKGLEYIGIIRVDGSGYYATWAKGRFTISRTSTTVELKITSPTTEDTATYFCARVGDWAFNIWGPGTLVTVSS
VL: IKMTQTPASVSTAVGGTVSINCQASEDIESYLAWFQQKPGQRPKLLIYRASTLASGVSSRFKGSGSGTEFTLTISGVECADAATYYCQQGHTINNIDNVFGGGTEVVVK
notes: Rabbit variable regions inserted into an expression vector containing the IgG constant regions; detected with anti-human IgG Fc; also called anti-human MARVELD3 isoform2 antibody
B4: MDA0279 (antibody, V domains shown)
VH: QSLEESGGDLVKPGGTLTLTCTASGFSFSDWYWVGWVRQAPGKGLEWIGCIVTGNGHTYYASWAKGRFTISKTSSTTVTLQLNSLTAADTATYFCARGVGASRYALWGPGTLVTVSS
VL: IVMTQTPSSKSVPVGDTVTINCQASESVASNWLSWYQQKPGQPPKLLIYFASTLASGVPSRFKGSGSGTQFTLTISDVVCDDAATYYCAGYKSDTTDGTAFGGGTEVVVK
notes: as for B3
B5: NXA0125 (antibody, V domains shown)
VH: QEQLEESGGDLVKPGASLTLTCTASGFSFNSNYFMCWVRQAPGKGLEWIACIYTGSSGGTYYATWAKGRFTISKTSSTTVTLQMTSLTAADTATYFCAGDTMTIPFNLWGPGTLVTVSS
VL: QVLTQTASPVSAPVGGTVTINCQASQSVYNNNNLHWFQQKPGQRPKLLIYFASTLASGVSSRFKGSGSGTQFTLTISGVQCDDAATYYCQGEFSCSSADCNAFGGGTEVVVK
notes: as for B2

Key:
[1] = molecular target: T1, human XPR1-Myc; experiment: flow cytometry on Expi293 cells transiently expressing human XPR1-Myc against cells with empty vector; anti-human IgG Fc Alexa488
Experimental: A plasmid vector expressing in mammalian cells full-length human XPR1 (amino acid SEQ ID NO: 1) with a Myc tag sequence ([…], SEQ ID NO: 25) added to the C-terminus (human XPR1-Myc, nucleotide SEQ ID NO: 26, amino acid SEQ ID NO: 27) was constructed. The protein was transiently expressed in Expi293 cells (Thermo Fisher Scientific) by introducing the constructed plasmid vector into Expi293 cells. At the same time, Expi293 cells transfected with an empty plasmid vector were also prepared as a control. The Expi293 cells transfected with an empty plasmid vector were stained with CellTrace FarRed (Thermo Fisher Scientific) and then mixed with the Expi293 cells made to express human XPR1-Myc, and subsequently reacted with the anti-human XPR1 antibody prepared in Example 6. […] The cells reacted with the antibody were measured by FACS Aria III (Becton, Dickinson and Company). The obtained data were analyzed by FlowJo ver.10. The live cell fraction, which was not stained with DAPI fluorescence, was separated into a fraction that was stained with CellTrace FarRed (cells transfected with the empty plasmid vector) and a fraction that was not stained with CellTrace FarRed (cells transfected with the human XPR1-Myc expression plasmid vector), and Alexa488 staining for each fraction was examined.

[2] = molecular target: human NOX1-Strep (human, UniProt Q9Y5S8 1-564); experiment: flow cytometry on fixed, digitonin-treated Expi293 cells expressing human NOX1-Strep against cells with empty vector; anti-human IgG Fc Alexa488
Experimental: (§1) A plasmid vector expressing human NOX1-Strep (amino acid SEQ ID NO: 34) or a plasmid vector expressing NOX1_Nx1B_564-myc (amino acid SEQ ID NO: 33) was introduced into Expi293 cells (Thermo Fisher Scientific) to express the protein transiently. At the same time, Expi293 cells transfected with an empty plasmid vector were also prepared as a control. These cells were treated with 4% paraformaldehyde and 1% digitonin. The Expi293 cells transfected with an empty plasmid vector were stained with CellTrace FarRed (Thermo Fisher Scientific), the Expi293 cells transfected with the plasmid vector expressing human NOX1-Strep were stained with CellTrace FarRed and CellTrace Violet (Thermo Fisher Scientific), and then mixed with the Expi293 cells made to express NOX1_Nx1B_564-myc. Subsequently, the cells were reacted with an anti-human NOX1 antibody prepared in Example 13.
(§2) Then, anti-human IgG Fc cross-adsorbed Alexa488 (Invitrogen) was reacted to stain the anti-human NOX1 antibody. The cells reacted with the antibody were measured by FACS Aria III (Becton, Dickinson and Company). The obtained data were analyzed by FlowJo ver.10.

[3] = molecular target: T3, NOX1_Nx1B_564-myc (human); experiment: flow cytometry on fixed, digitonin-treated Expi293 cells expressing NOX1_Nx1B_564-myc against cells with empty vector; anti-human IgG Fc Alexa488
T3 construct: Expressed in Expi293 cells treated with 4% paraformaldehyde and 1% digitonin before staining; also called human NOX1
Experimental: as §1, §2

[4] = molecular target: T2, Myc-human MARVELD3; experiment: flow cytometry on Expi293 cells transiently expressing Myc-human MARVELD3 isoform2 against cells with empty vector; anti-human IgG Fc Alexa488
From the text: A plasmid vector that expresses, in mammalian cells, a molecule (Myc-human MARVELD3, nucleotide SEQ ID NO: 29, amino acid SEQ ID NO: 30) in which the Myc tag sequence ([…], SEQ ID NO: 25) has been added after the N-terminal methionine of full-length human MARVELD3 isoform2 (amino acid SEQ ID NO: 4), was introduced into Expi293 cells (Thermo Fisher Scientific), and the protein was transiently expressed in the Expi293 cells. At the same time, Expi293 cells transfected with an empty plasmid vector were also prepared as a control. The Expi293 cells transfected with an empty plasmid vector were stained with CellTrace FarRed (Thermo Fisher Scientific) and then mixed with the Expi293 cells made to express human MARVELD3 isoform2, and subsequently reacted with an anti-human MARVELD3 isoform2 antibody prepared in Example 9. […] The cells reacted with the antibody were measured by FACS Aria III (Becton, Dickinson and Company). The obtained data were analyzed by FlowJo ver.10. The live cell fraction, which was not stained with DAPI fluorescence, was separated into a fraction that was stained with CellTrace FarRed (cells transfected with the empty plasmid vector) and a fraction that was not stained with CellTrace FarRed (cells transfected with the human XPR1-Myc expression plasmid vector), and Alexa488 staining for each fraction was examined.

human NOX1-Strep, sequence (Q9Y5S8 other isoform, or with tags, fused parts or gaps): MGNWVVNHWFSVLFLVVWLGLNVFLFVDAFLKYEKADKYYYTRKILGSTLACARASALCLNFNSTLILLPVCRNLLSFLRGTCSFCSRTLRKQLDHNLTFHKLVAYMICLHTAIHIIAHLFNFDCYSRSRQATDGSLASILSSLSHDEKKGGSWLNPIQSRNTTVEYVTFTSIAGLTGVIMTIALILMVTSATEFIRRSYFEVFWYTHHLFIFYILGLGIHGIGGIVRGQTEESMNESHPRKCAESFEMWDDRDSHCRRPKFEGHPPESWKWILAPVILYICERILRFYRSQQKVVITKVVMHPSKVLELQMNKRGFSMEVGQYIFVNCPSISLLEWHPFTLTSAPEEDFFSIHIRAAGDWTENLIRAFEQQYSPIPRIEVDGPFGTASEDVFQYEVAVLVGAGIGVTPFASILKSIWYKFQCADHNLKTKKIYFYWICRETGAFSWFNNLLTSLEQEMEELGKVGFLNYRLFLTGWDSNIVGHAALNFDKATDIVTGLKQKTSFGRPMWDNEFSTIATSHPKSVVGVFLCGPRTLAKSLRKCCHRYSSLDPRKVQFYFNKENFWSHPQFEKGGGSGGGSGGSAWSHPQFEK
T3 sequence (chain, as listed by the source limits assumed): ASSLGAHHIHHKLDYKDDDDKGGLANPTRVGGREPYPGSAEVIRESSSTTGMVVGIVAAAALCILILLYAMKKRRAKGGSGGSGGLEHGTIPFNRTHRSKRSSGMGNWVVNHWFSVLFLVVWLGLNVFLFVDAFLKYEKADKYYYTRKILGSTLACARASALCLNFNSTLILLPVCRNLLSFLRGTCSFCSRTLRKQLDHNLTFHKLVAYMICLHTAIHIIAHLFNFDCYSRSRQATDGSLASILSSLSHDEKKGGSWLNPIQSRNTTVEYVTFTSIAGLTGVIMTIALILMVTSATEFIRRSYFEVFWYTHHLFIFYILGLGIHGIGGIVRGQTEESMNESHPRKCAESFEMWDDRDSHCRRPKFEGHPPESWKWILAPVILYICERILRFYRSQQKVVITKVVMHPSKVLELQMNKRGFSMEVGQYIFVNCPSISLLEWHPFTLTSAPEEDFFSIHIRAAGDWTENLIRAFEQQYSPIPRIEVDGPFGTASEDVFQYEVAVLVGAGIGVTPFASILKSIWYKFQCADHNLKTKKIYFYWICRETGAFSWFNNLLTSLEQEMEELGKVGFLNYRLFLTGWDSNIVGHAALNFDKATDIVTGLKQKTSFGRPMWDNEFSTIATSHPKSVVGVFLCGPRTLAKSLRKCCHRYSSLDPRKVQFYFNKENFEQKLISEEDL

| binding result [1] | binding result [2] | binding result [3] | binding result [4] | Binder |
| --- | --- | --- | --- | --- |
| binds | – | – | – | B1 |
| – | binds | binds | – | B2 |
| – | – | – | binds | B3 |
| – | – | – | binds | B4 |
| – | binds | binds | – | B5 |
